Experiments:
Assay in all cases: holdup assay
Set-up in all cases: key: below the threshold = too weak to quantify, mostly under pKd 3.1 to 4
Settings in all cases: plain residues with an end cap or a label only (N-terminal biotin on a linker: ado-ado)
LIMK2, P53671 = molecular target: LIMK2, P53671
TJP1_3, Q07157 = molecular target: TJP1_3, Q07157
PDZRN3_1, Q9UPQ7 = molecular target: T1, PDZRN3_1, Q9UPQ7
T1 sequence (Q9UPQ7 244-349, limits assumed, looked up): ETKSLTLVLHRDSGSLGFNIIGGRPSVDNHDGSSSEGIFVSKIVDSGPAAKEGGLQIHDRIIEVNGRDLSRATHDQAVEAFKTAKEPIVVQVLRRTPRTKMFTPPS

SHANK1, Q9Y566 = molecular target: T2, SHANK1, Q9Y566
T2 sequence (Q9Y566 658-767, limits assumed, looked up): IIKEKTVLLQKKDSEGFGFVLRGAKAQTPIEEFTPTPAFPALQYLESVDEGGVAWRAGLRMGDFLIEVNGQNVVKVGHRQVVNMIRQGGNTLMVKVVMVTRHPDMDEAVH

APBA3_1, O96018 = molecular target: T3, APBA3_1, O96018
T3 sequence (O96018 389-490, limits assumed, looked up): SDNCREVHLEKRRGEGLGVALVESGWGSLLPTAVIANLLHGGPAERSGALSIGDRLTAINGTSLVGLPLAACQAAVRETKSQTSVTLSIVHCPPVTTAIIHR

FRMPD4, Q14CM0 = molecular target: FRMPD4, Q14CM0
SIPA1L2, Q9P2F8 = molecular target: T4, SIPA1L2, Q9P2F8
T4 sequence (Q9P2F8 945-1036, limits assumed, looked up): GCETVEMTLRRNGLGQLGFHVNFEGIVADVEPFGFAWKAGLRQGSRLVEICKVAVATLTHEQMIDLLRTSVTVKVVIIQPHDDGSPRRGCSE

MAGI1_2, Q96QZ7 = molecular target: MAGI1_2, Q96QZ7
AHNAK1, Q09666 = molecular target: AHNAK1, Q09666
DLG4_3, P78352 = molecular target: DLG4_3, P78352
GORASP1, Q9BQQ3 = molecular target: GORASP1, Q9BQQ3
DLG3_3, Q92796 = molecular target: T5, DLG3_3, Q92796
T5 sequence (Q92796 374-475, limits assumed, looked up): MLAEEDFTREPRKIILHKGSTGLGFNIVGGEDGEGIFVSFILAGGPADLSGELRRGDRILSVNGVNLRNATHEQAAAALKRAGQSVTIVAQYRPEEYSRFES

LNX2_3, Q8N448 = molecular target: T6, LNX2_3, Q8N448
T6 sequence (Q8N448 463-564, limits assumed, looked up): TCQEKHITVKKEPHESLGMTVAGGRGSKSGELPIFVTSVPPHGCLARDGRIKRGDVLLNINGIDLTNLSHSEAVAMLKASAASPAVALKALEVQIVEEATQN

IL16_3, Q14005 = molecular target: IL16_3, Q14005
SNX27, Q96L92 = molecular target: SNX27, Q96L92
LNX1_3, Q8TBB1 = molecular target: LNX1_3, Q8TBB1
DLG5_1, Q8TDM6 = molecular target: DLG5_1, Q8TDM6
NHERF3_4, Q5T2W1 = molecular target: T7, NHERF3_4, Q5T2W1
T7 sequence (Q5T2W1 373-468, limits assumed, looked up): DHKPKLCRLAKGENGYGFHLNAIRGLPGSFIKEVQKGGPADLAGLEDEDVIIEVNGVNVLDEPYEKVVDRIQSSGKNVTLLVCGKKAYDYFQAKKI

Inadl_9, Q8NI35 = molecular target: Inadl_9, Q8NI35
PDZD2_2, O15018 = molecular target: T8, PDZD2_2, O15018
T8 sequence (O15018 329-429, limits assumed, looked up): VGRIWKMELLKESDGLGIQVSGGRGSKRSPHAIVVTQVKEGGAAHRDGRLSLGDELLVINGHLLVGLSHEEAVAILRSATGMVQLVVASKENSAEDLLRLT

Inadl_1, Q8NI35 = molecular target: Inadl_1, Q8NI35
GRID2IP_2, A4D2P6 = molecular target: GRID2IP_2, A4D2P6
NOS1, P29475 = molecular target: NOS1, P29475
FRMPD2_3, Q68DX3 = molecular target: FRMPD2_3, Q68DX3
Inadl_5, Q8NI35 = molecular target: Inadl_5, Q8NI35
GIPC2, Q8TF65 = molecular target: GIPC2, Q8TF65
Inadl_4, Q8NI35 = molecular target: Inadl_4, Q8NI35
NHERF4_4, Q86UT5 = molecular target: NHERF4_4, Q86UT5
LRRC7, Q96NW7 = molecular target: T9, LRRC7, Q96NW7
T9 sequence (Q96NW7 1440-1537, limits assumed, looked up): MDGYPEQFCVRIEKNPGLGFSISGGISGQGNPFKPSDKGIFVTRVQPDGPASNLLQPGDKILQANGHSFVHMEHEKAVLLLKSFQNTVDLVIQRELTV

FRMPD4, Q14CM0, sequence (Q14CM0 67-160): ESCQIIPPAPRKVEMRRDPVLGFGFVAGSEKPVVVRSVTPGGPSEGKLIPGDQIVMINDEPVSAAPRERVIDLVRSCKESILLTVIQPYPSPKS
AHNAK1, Q09666, sequence (Q09666 4-100): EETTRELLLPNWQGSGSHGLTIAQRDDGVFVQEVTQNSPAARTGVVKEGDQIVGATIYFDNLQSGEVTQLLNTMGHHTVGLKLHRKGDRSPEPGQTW
GRID2IP_2, A4D2P6, sequence (A4D2P6 272-370): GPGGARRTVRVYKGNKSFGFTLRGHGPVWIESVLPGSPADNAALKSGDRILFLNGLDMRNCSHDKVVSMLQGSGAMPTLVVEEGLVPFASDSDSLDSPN
NOS1, P29475, sequence (P29475 9-101): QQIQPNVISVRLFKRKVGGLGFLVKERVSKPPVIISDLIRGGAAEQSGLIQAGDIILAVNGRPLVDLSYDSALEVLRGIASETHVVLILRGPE
FRMPD2_3, Q68DX3, sequence (Q68DX3 1073-1166): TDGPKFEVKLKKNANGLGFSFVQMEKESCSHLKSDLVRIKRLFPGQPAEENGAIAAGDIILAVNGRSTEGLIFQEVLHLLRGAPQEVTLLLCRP
IL16_3, Q14005, sequence (Q14005 1107-1207): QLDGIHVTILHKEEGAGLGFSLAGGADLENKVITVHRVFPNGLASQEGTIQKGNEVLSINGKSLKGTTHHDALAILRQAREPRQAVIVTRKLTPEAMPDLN
Inadl_9, Q8NI35, sequence (Q8NI35 1530-1615): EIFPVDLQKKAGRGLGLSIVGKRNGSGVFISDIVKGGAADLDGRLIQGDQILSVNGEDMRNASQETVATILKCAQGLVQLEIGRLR
LIMK2, P53671, sequence (P53671 143-248): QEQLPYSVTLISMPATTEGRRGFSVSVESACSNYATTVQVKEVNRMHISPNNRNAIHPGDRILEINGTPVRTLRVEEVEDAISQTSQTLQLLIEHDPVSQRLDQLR
Inadl_5, Q8NI35, sequence (Q8NI35 673-780): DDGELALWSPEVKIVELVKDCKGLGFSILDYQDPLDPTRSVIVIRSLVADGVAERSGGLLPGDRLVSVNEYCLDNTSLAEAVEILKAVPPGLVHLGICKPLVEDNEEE
GORASP1, Q9BQQ3, sequence (Q9BQQ3 1-208): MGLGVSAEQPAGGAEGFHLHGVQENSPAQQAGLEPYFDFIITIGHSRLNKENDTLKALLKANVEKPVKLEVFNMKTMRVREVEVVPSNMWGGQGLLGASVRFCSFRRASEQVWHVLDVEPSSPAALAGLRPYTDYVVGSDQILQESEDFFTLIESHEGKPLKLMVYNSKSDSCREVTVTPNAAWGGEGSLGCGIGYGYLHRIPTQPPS
TJP1_3, Q07157, sequence (Q07157 416-512): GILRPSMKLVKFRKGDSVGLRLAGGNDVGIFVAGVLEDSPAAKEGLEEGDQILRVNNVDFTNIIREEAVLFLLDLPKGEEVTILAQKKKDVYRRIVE
MAGI1_2, Q96QZ7, sequence (Q96QZ7 456-580): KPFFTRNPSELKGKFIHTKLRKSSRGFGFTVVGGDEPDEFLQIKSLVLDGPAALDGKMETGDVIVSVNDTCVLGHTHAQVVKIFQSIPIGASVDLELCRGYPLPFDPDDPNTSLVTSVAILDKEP
DLG5_1, Q8TDM6, sequence (Q8TDM6 617-713): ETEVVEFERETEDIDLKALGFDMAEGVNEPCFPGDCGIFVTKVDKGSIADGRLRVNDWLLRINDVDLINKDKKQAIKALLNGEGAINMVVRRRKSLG
NHERF4_4, Q86UT5, sequence (Q86UT5 464-550): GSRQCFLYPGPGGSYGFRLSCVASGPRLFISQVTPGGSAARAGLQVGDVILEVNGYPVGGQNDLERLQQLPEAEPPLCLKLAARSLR
DLG4_3, P78352, sequence (P78352 306-403): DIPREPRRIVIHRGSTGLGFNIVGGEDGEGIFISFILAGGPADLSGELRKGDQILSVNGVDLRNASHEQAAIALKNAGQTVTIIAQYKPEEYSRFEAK
LNX1_3, Q8TBB1, sequence (Q8TBB1 500-596): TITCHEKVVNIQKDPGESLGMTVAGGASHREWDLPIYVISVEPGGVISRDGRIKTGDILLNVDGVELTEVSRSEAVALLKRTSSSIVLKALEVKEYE
Inadl_1, Q8NI35, sequence (Q8NI35 113-229): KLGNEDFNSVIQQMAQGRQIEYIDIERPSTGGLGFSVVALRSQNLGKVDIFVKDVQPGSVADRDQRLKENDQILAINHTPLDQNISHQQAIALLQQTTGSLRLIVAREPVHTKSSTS
Inadl_4, Q8NI35, sequence (Q8NI35 547-651): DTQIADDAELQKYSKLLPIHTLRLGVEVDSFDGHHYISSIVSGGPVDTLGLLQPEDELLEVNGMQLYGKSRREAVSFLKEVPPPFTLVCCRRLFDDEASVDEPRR
GIPC2, Q8TF65, sequence (Q8TF65 112-203): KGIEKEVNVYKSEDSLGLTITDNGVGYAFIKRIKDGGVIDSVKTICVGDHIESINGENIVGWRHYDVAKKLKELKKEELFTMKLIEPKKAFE

| Binder | pKd (LIMK2, P53671) | pKd (TJP1_3, Q07157) | pKd (PDZRN3_1, Q9UPQ7) | pKd (SHANK1, Q9Y566) | pKd (APBA3_1, O96018) | pKd (FRMPD4, Q14CM0) | pKd (SIPA1L2, Q9P2F8) | pKd (MAGI1_2, Q96QZ7) | pKd (AHNAK1, Q09666) | pKd (DLG4_3, P78352) | pKd (GORASP1, Q9BQQ3) | pKd (DLG3_3, Q92796) | pKd (LNX2_3, Q8N448) | pKd (IL16_3, Q14005) | pKd (SNX27, Q96L92) | pKd (LNX1_3, Q8TBB1) | pKd (DLG5_1, Q8TDM6) | pKd (NHERF3_4, Q5T2W1) | pKd (Inadl_9, Q8NI35) | pKd (PDZD2_2, O15018) | also measured |
| --- | --- | --- | --- | --- | --- | --- | --- | --- | --- | --- | --- | --- | --- | --- | --- | --- | --- | --- | --- | --- | --- |
| PLDSQQHTEV [FAT1, Q14517] | below the threshold | below the threshold | below the threshold | below the threshold | below the threshold | below the threshold | below the threshold | below the threshold | below the threshold | below the threshold | below the threshold | below the threshold | below the threshold | below the threshold | 4.7 | below the threshold | below the threshold | below the threshold | 3.69 | 4.79 | pKd (Inadl_1, Q8NI35): below the threshold; pKd (GRID2IP_2, A4D2P6): 3.84; pKd (NOS1, P29475): below the threshold; pKd (FRMPD2_3, Q68DX3): below the threshold; pKd (Inadl_5, Q8NI35): below the threshold; pKd (GIPC2, Q8TF65): 3.89; pKd (Inadl_4, Q8NI35): below the threshold; pKd (NHERF4_4, Q86UT5): below the threshold; pKd (LRRC7, Q96NW7): below the threshold |
| LTAQEQPVYI [APBA1, Q02410] | below the threshold | below the threshold | below the threshold | below the threshold | below the threshold | below the threshold | below the threshold | below the threshold | below the threshold | below the threshold | 3.87 | below the threshold | below the threshold | below the threshold | below the threshold | below the threshold | below the threshold | below the threshold | 4.6 | 4.36 | pKd (Inadl_1, Q8NI35): below the threshold; pKd (GRID2IP_2, A4D2P6): 3.81; pKd (NOS1, P29475): 4.07; pKd (FRMPD2_3, Q68DX3): below the threshold; pKd (Inadl_5, Q8NI35): 3.86; pKd (GIPC2, Q8TF65): below the threshold; pKd (Inadl_4, Q8NI35): below the threshold; pKd (NHERF4_4, Q86UT5): below the threshold; pKd (LRRC7, Q96NW7): below the threshold |
| SRPTKGPTLL [PLEKHH2, Q8IVE3] | below the threshold | below the threshold | 3.69 | below the threshold | below the threshold | 3.88 | below the threshold | 4.25 | below the threshold | below the threshold | 3.78 | below the threshold | below the threshold | below the threshold | 3.76 | below the threshold | below the threshold | 3.65 | 3.5 | 3.87 | pKd (Inadl_1, Q8NI35): below the threshold; pKd (GRID2IP_2, A4D2P6): 4.48; pKd (NOS1, P29475): 4.35; pKd (FRMPD2_3, Q68DX3): below the threshold; pKd (Inadl_5, Q8NI35): below the threshold; pKd (GIPC2, Q8TF65): below the threshold; pKd (Inadl_4, Q8NI35): below the threshold; pKd (NHERF4_4, Q86UT5): 3.89; pKd (LRRC7, Q96NW7): below the threshold |
| RTQSSDSAYV [GJD2, Q9UKL4] | below the threshold | below the threshold | below the threshold | below the threshold | below the threshold | 3.86 | below the threshold | below the threshold | below the threshold | below the threshold | 3.67 | below the threshold | below the threshold | below the threshold | 4.13 | 3.47 | below the threshold | 3.54 | 3.85 | 5.15 | pKd (Inadl_1, Q8NI35): below the threshold; pKd (GRID2IP_2, A4D2P6): below the threshold; pKd (NOS1, P29475): 3.95; pKd (FRMPD2_3, Q68DX3): 3.71; pKd (Inadl_5, Q8NI35): 3.5; pKd (GIPC2, Q8TF65): below the threshold; pKd (Inadl_4, Q8NI35): below the threshold; pKd (NHERF4_4, Q86UT5): below the threshold; pKd (LRRC7, Q96NW7): below the threshold |
